Measured values published in patent US20160200782A1 (MOERAE MATRIX, published 2016).

T1: EphB3(h) (human, UniProt P54753 581-998, limits assumed)
T1 sequence (looked up): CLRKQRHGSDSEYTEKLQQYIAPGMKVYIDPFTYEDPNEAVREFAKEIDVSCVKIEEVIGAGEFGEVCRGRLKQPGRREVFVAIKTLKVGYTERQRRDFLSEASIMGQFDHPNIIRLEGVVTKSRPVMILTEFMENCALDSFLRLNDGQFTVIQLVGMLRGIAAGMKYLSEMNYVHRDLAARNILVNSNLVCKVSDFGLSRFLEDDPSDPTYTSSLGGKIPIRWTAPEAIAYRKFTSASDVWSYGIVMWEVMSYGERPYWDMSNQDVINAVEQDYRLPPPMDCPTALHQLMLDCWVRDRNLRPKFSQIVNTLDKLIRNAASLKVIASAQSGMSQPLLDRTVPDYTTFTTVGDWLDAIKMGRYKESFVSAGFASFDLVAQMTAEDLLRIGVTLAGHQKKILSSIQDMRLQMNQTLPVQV

T2: TAO2(h) (human, UniProt Q9UL54 1-314, limits assumed)
T2 sequence (looked up): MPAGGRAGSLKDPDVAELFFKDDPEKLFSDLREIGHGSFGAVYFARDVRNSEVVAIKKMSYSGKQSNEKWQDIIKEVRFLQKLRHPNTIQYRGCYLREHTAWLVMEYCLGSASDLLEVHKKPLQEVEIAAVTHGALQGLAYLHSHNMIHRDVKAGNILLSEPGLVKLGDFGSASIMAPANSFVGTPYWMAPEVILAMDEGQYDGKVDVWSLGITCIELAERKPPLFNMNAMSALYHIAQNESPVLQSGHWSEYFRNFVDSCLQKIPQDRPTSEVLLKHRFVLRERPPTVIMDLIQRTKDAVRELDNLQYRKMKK

T3: TAK1(h) (human, UniProt O43318 1-303, limits assumed)
T3 sequence (looked up): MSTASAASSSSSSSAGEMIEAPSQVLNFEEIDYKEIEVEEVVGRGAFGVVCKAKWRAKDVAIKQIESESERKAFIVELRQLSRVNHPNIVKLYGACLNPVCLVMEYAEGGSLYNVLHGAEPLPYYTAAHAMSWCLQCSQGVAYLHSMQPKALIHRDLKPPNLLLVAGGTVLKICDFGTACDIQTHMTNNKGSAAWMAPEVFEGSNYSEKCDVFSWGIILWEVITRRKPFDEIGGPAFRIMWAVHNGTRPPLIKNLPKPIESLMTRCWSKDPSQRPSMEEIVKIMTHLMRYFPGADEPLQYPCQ

T4: EphB4(h) (human, UniProt P54760 561-987, limits assumed)
T4 sequence (looked up): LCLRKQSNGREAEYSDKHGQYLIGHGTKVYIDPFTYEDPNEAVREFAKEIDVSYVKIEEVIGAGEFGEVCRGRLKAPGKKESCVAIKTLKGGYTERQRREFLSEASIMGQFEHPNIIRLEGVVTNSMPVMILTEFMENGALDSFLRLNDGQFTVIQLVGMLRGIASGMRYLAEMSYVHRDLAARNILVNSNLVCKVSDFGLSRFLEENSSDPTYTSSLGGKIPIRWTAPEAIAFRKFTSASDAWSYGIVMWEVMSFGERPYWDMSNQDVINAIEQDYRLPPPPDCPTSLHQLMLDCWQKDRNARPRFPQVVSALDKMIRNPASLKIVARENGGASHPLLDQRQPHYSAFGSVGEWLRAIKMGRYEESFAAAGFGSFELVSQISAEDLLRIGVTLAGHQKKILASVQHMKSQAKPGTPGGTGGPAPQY

T5: Ret(V804L)(h) (human, UniProt P07949 658-1114, limits assumed)
T5 sequence (looked up): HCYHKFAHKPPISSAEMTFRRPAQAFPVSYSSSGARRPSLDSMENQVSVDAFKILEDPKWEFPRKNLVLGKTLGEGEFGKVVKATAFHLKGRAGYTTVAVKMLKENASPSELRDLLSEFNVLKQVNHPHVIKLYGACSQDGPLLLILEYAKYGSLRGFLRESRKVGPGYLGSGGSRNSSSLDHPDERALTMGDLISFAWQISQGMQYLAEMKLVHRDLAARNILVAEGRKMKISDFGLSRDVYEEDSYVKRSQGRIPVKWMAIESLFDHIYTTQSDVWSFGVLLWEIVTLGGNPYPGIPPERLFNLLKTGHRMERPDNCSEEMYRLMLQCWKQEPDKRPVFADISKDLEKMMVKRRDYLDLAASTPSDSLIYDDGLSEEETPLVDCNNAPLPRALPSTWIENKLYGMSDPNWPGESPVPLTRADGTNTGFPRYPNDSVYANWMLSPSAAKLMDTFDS


How the values were obtained:
Experiment in all cases: cell-based or functional assay
[1] = target: T1, EphB3(h)
[2] = target: PDGFRα(V561D)(h) (human, UniProt P16234 550-1089, limits assumed)
[3] = target: mTOR/FKBP12(h) (human, UniProt P42345 1362-2549; P62942 1-108)
[4] = target: EGFR(L861Q)(h) (human, UniProt P00533 696-1210, limits assumed)
[5] = target: T2, TAO2(h)
[6] = target: TrkB(h) (human, UniProt Q16620 455-822, limits assumed)
[7] = target: Tie2(Y897S)(h) (human, UniProt Q02763 771-1124, limits assumed)
[8] = target: T3, TAK1(h)
[9] = target: Pim-1(h) (human, UniProt P11309 1-313)
[10] = target: WNK2(h) (human, UniProt Q9Y3S1 166-489, limits assumed)
[11] = target: T4, EphB4(h)
[12] = target: MSK2(h) (human, UniProt O75676 1-772, limits assumed)
[13] = target: NEK7(h) (human, UniProt Q8TDX7 1-302)
[14] = target: CLK3(h) (human, UniProt P49761 1-490, limits assumed)
[15] = target: Rsk1(h) (human, UniProt Q15418 1-735, limits assumed)
[16] = target: T5, Ret(V804L)(h)

% activity [1] | % activity [2] | % activity [3] | % activity [4] | % activity [5] | % activity [6] | % activity [7] | % activity [8] | % activity [9] | % activity [10] | % activity [11] | % activity [12] | % activity [13] | % activity [14] | % activity [15] | % activity [16] | Binder
47% | 100% | 125% | 22% | 74% | 8% | 87% | 177% | 7% | 54% | 28% | 52% | 87% | 84% | 54% | 73% | KAFAKLAARLYRKALARQLGVAA [MMI-0400]
62% | 82% | 145% | 25% | 70% | 5% | 83% | 122% | 8% | 64% | 44% | 56% | 84% | 61% | 46% | 79% | FAKLAARLYRKALARQLGVAA [MMI-0300]
